Where two headings read alike, the source gives them in different places.
Assays:
Assay in all cases: ITC
TRBP2-dsRBD1 [1] = molecular target: T1, TRBP2-dsRBD1 (UniProt Q15633 1-105)
T1 sequence: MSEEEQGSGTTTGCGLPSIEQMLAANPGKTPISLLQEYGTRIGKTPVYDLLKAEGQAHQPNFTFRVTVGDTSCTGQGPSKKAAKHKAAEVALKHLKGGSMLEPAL

dADAR-dsRBD1 [2] = molecular target: T2, dADAR-dsRBD1 (UniProt Q9NII1 48-140)
T2 sequence: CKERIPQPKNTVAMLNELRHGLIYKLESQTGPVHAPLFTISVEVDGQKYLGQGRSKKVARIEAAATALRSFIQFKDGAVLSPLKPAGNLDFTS

TRBP2-dsRBD1 [3] = molecular target: T1, TRBP2-dsRBD1; remark: listed apart in the source
dADAR-dsRBD1 [4] = molecular target: T2, dADAR-dsRBD1; remark: listed apart in the source
TRBP2-dsRBD1 [5] = molecular target: T1, TRBP2-dsRBD1; remark: listed apart in the source
dADAR-dsRBD1 [6] = molecular target: T2, dADAR-dsRBD1; remark: listed apart in the source
dADAR-dsRBD1 [7] = molecular target: T2, dADAR-dsRBD1; remark: listed apart in the source
TRBP2-dsRBD1 [8] = molecular target: T1, TRBP2-dsRBD1; remark: listed apart in the source
dADAR-dsRBD1 [9] = molecular target: T2, dADAR-dsRBD1; remark: listed apart in the source
TRBP2-dsRBD1 [10] = molecular target: T1, TRBP2-dsRBD1; remark: listed apart in the source

B1: miR-16-1-M (dsRNA)
RNA 1: UAGCAGCACGUAAAUAUUGGCG
RNA 2: CCAGUAUUAACGUGCUGCUGAA
- Kd (TRBP2-dsRBD1 [1]): 2120 ± 220 nM
- Kd (dADAR-dsRBD1 [2]): 780 ± 240 nM

B2: miR-16-1 (dsRNA)
RNA 1: UAGCAGCACGUAAAUAUUGGCG
RNA 2: CCAGUAUUAACUGUGCUGCUGAA
- Kd (TRBP2-dsRBD1 [3]): 890 ± 210 nM
- Kd (dADAR-dsRBD1 [4]): 270 ± 50 nM

B3: D10RNA (dsRNA)
RNA 1: UUAUAAAUGC
RNA 2: GCAUUUAUGA
- Kd (TRBP2-dsRBD1 [5]): 2210 ± 510 nM
- Kd (dADAR-dsRBD1 [6]): 210 ± 100 nM

B4: miR-16-1-B (dsRNA)
RNA 1: UAGCAGCACGUAAAUAUUGGCG
RNA 2: CCAGUAUUUACUGUGCUGCUGAA
- Kd (dADAR-dsRBD1 [7]): 270 ± 70 nM
- Kd (TRBP2-dsRBD1 [8]): 690 ± 130 nM

B5: miR-16-1-D (dsRNA)
RNA 1: UAGCAGCACGUAAAUAUUGGCG
RNA 2: CCAGUAUUUACGUGCUGCUGAA
- Kd (dADAR-dsRBD1 [9]): 430 ± 100 nM
- Kd (TRBP2-dsRBD1 [10]): 500 ± 40 nM
